Results published in paper doi:10.1101/681668 (bioRxiv, 2019).

Target: T1, MBP-ORC1 A-A (human, UniProt Q13415 1-861, 235KRL237 to 235ARA237)
T1 sequence: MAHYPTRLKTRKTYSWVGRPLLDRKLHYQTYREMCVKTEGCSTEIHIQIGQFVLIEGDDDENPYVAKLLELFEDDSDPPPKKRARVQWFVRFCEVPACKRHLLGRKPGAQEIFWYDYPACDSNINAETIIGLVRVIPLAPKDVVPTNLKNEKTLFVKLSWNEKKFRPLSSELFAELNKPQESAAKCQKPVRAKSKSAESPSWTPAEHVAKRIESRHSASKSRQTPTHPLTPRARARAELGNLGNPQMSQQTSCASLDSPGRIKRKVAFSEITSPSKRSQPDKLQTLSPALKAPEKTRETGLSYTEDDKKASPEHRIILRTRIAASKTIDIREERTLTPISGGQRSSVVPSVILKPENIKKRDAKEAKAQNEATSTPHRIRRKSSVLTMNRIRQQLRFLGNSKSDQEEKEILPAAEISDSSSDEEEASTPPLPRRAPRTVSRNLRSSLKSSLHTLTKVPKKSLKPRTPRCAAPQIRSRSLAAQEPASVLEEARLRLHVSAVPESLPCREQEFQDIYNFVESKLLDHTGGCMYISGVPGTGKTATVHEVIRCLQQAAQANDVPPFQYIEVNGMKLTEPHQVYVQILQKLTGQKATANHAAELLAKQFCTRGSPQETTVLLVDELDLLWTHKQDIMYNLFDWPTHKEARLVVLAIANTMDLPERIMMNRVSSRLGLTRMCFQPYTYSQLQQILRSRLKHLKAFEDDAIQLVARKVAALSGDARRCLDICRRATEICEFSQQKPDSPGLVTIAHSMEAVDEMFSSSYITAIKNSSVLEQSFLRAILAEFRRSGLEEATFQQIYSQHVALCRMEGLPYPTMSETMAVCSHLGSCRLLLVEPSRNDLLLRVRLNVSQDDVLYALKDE
Assay: pull-down

binding result: binds
B1: GST-CDC6 (natural protein)
chain: MPQTRSQAQATISFPKRKLSRALNKAKNSSDAKLEPTNVQTVTCSPRVKALPLSPRKRLGDDNLCNTPHLPPCSPPKQGKKENGPPHSHTLKGRRLVFDNQLTIKSPSKRELAKVHQNKILSSVRKSQEITTNSEQRCPLKKESACVRLFKQEGTCYQQAKLVLNTAVPDRLPAREREMDVIRNFLREHICGKKAGSLYLSGAPGTGKTACLSRILQDLKKELKGFKTIMLNCMSLRTAQAVFPAIAQEICQEEVSRPAGKDMMRKLEKHMTAEKGPMIVLVLDEMDQLDSKGQDVLYTLFEWPWLSNSHLVLIGIANTLDLTDRILPRLQAREKCKPQLLNFPPYTRNQIVTILQDRLNQVSRDQVLDNAAVQFCARKVSAVSGDVRKALDVCRRAIEIVESDVKSQTILKPLSECKSPSEPLIPKRVGLIHISQVISEVDGNRMTLSQEGAQDSFPLQQKILVCSLMLLIRQLKIKEVTLGKLYEAYSKVCRKQQVAAVDQSECLSLSGLLEARGILGLKRNKETRLTKVFFKIEEKEIEHALKDKALIGNILATGLP
